According to PMC3530532, “Corticosteroid-Binding Globulin: Structure-Function Implications from Species Differences” (PLoS ONE, 2012):
Changes are numbered by the printed parent chain. In names and notes the source's numbering stands.

T1: Rat CBG-WT (Rattus norvegicus, UniProt P31211)
T1 construct: residues 5 to 374 of rat CBG (P31211); GST (N, cleaved yes); made in house; host or cells: E. coli BL21 Star (DE3)
T1 sequence (P31211 27-396): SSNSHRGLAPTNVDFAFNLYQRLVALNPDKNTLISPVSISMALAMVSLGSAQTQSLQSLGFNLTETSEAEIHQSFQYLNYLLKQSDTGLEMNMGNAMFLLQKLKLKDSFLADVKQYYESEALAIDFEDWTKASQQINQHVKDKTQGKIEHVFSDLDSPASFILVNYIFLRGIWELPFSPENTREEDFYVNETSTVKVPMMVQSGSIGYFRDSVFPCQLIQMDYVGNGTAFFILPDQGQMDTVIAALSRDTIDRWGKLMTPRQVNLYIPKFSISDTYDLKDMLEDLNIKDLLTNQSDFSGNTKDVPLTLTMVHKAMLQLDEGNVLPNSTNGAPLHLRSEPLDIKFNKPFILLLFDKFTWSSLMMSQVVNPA

B1: CBG-RCL2: rat CBG variant CBG-RCL1 plus mutations P329T and N333T (protein, UniProt P31211 23-396, looked up, variant A335V P336T P329T N333T)
Corticosteroid-binding …: STNESSNSHRGLAPTNVDFAFNLYQRLVALNPDKNTLISPVSISMALAMVSLGSAQTQSLQSLGFNLTETSEAEIHQSFQYLNYLLKQSDTGLEMNMGNAMFLLQKLKLKDSFLADVKQYYESEALAIDFEDWTKASQQINQHVKDKTQGKIEHVFSDLDSPASFILVNYIFLRGIWELPFSPENTREEDFYVNETSTVKVPMMVQSGSIGYFRDSVFPCQLIQMDYVGNGTAFFILPDQGQMDTVIAALSRDTIDRWGKLMTPRQVNLYIPKFSISDTYDLKDMLEDLNIKDLLTNQSDFSGNTKDVPLTLTMVHKAMLQLDEGNVLTNSTTGVTLHLRSEPLDIKFNKPFILLLFDKFTWSSLMMSQVVNPA
B2: CBG-RCL3: rat CBG variant CBG-RCL2 plus R174K, D323N, G325E and N326G (protein, UniProt P31211 23-396, looked up, variant A335V P336T P329T N333T R174K D323N G325E N326G)
Corticosteroid-binding …: B1 Corticosteroid-binding … with R174K, D323N, G325E, N326G

Experiments:
[1] = Thermal denaturation monitored by CD spectroscopy; format: physicochemical; conditions: for thermal unfolding temperature / thermal stability: CD at 222 or 220 nm, 1°C/min, 10 mM potassium phosphate pH 7.4; for change of thermal stability upon RCL cleavage: elastase-cleaved vs uncleaved, CD-monitored
Experimental: Heat-induced unfolding transitions were recorded at protein concentrations between 0.5 and 0.7 µM in 10 mM potassium phosphate (pH 7.4). The samples were heated at a rate of 1°C/min in a 1 cm cell and the ellipticity was monitored at 222 or 220 nm. The sensitivity was set to 50 mdeg with a bandwidth of 1 nm and 8 sec response time.

[2] = target: T1, Rat CBG-WT; assay: Isothermal titration calorimetry, steroid titrated to rat CBG-WT; format: binding; conditions: ITC, 25°C
Experimental: The coding sequences of residues 11 to 383 of human CBG (Swiss-Prot entry P08185) and residues 5 to 374 of rat CBG (P31211) were cloned into a pGEX-2T vector (GE Healthcare, Uppsala), yielding N-terminal glutathione-S-transferase (GST) fusion proteins. Mutations were introduced using a two-stage PCR procedure based on the QuikChange (Stratagene, Santa Clara) site-directed mutagenesis protocol. All experiments with human CBG were conducted with a mutant in which surface residue Lys126 was replaced by alanine in order to facilitate crystallization. Wild-type rat CBG (rat CBG-WT) and rat CBG mutants CBG-RCL1, CBG-RCL2 and CBG-RCL3 were produced to probe the function of the RCL residues in rat CBG. All gene constructs were confirmed by DNA sequencing prior to protein production.
The GST-tagged human and rat CBG variants were produced in E. coli BL21 Star™ (DE3) cells (Invitrogen, Carlsbad) using the ZYM-5052 auto-inducing medium. For each variant, 10 L of ZYM-5052 medium containing 100 µg/mL ampicillin were inoculated with an overnight culture of a single clone. The flasks were incubated at 37°C until the optical density at 600 nm reached 0.3. The temperature was then lowered to 20°C, and the cells were allowed to grow for an additional 20 h. The pellet was resuspended in PBS buffer (pH 7.4) containing 5 mM EDTA after cell harvesting (4 mL of buffer per gram of pellet).
The protein samples were dialyzed against ITC buffer (20 mM potassium phosphate, 50 mM NaCl, pH 7.4) and titrated with steroids in a VP-ITC microcalorimeter (Microcal, Piscataway). All solutions were filtered (0.2 µm filter pore size) and degassed for 30 min prior to the titration experiments. The sample cell was filled with protein solution containing 15 µM rat CBG or 20 µM human CBG and titrated with steroid solutions containing 150 µM and 200 µM ligand, respectively. The titrations consisted of an initial injection of 2 µL followed by 25 consecutive injections of 10 µL ligand solution at 25°C. A spacing of 240 sec between the injections was used to allow a return to the baseline. Data points from the initial injection, which are generally affected by diffusion during the initial equilibration period after experiment setup, were discarded prior to data analysis. […] The binding curve was generated by plotting the heats of injections against the ratio of ligand to protein in the cell. Integrated heat data were analyzed using nonlinear regression fit with a one-site-binding model in the Origin-7™ software provided with the VP-ITC. Changes in the free energy and entropy can be calculated using the equation: ΔG° = −RTlnK = ΔH°−TΔS°. In this equation ΔG° is the change in Gibbs free energy, R the universal gas constant, T the temperature, and K the association constant. The change in enthalpy is denoted as ΔH°, and ΔS° is the change in entropy under standard conditions. The data shown in Table 2 were obtained from single titrations of each complex.

Molecule | thermal unfolding temperature / thermal stability [1] | change of thermal stability upon RCL cleavage [1] | further results
uncleaved human alpha-1-antitrypsin: human alpha-1-antitrypsin, archetypical member of the SERPIN family, used to validate the setup | about 60 °C | – | –
cleaved human alpha-1-antitrypsin: human alpha-1-antitrypsin after cleavage of the RCL | 90 °C | – | –
C[C@]12C[C@H](O)[C@H]3[C@@H](CCC4=CC(=O)CC[C@@]43C)[C@@H]1CC[C@@H]2C(=O)CO [Corticosterone] | – | – | TΔS° ([2]; rat CBG-WT): -14.6 kcal/mol; ΔG° ([2]; rat CBG-WT): -10.2 kcal/mol; ΔH° ([2]; rat CBG-WT): -24.76 kcal/mol; Kd ([2]; single titration, uncleaved rat CBG-WT): 37 ± 2 nM
B1 | – | neither of these humanized rat CBG variants displayed an increased thermal stability | –
B2 | – | neither of these humanized rat CBG variants displayed an increased thermal stability | –
